US11643691B2, “Predictive biomarkers for cancer immunotherapy and methods of using same” (Duke University, priority 2018, dated 2023)

Test system: BRAF^V600EPTEN^−/− melanoma cell line
Experiment: Qrt-PCR of chemokines in melanoma cell line after rWnt5a
Type: cell-based
Conditions: vs vehicle ctrl
Source text: (A) TCGA melanoma database gene expression association analysis of CXCL5, CXCL2, and CXCR2 with WNT5A. (B) Whole tumor tissue Western blot analysis of Wnt5a, nuclear Yap-1, CXCL5 and β-actin (loading control). Representative blot shown (n=3). (C) Plasma CXCL5 ELISA following anti-PD-1 ab therapy vs IgG isotype ctrl therapy in the transgenic BRAF^V600EPTEN^−/− melanoma model (n=5). bottom, plasma CXCL5 dot blot following anti-PD-1 ab therapy vs IgG isotype ctrl therapy in the transgenic BRAF^V600EPTEN^−/− melanoma model. Representative of 3 independent experiments. pseudo-red reflective of density. (D) Qrt-PCR analysis of Cxcl5, Cxcl2, and Cxcl1 in the BRAF^V600EPTEN^−/− melanoma cell line following treatment with recombinant Wnt5a (rWnt5a) vs vehicle ctrl (n=3). (E) Western blot analysis of Yap-1 expression in total cellular lysates (top) and nuclear lysates (middle) following treatment of BRAF^V600EPTEN^−/− melanoma cells with rWnt5a at various time points. β-actin, total lysate loading ctrl. […], nuclear lysate loading ctrl. (bottom) rWnt5a induction of CXCL5 in the absence and presence of verteporfin (YAP inhibitor) or XAV939 (β-catenin inhibitor). All representative of 3 independent experiments. […]

B1: Wnt5a: Recombinant Human/Mouse Wnt5a Protein (R&D Systems) (protein, UniProt P41221 62-380, looked up)
Protein Wnt-5a: IIGAQPLCSQLAGLSQGQKKLCHLYQDHMQYIGEGAKTGIKECQYQFRHRRWNCSTVDNTSVFGRVMQIGSRETAFTYAVSAAGVVNAMSRACREGELSTCGCSRAARPKDLPRDWLWGGCGDNIDYGYRFAKEFVDARERERIHAKGSYESARILMNLHNNEAGRRTVYNLADVACKCHGVSGSCSLKTCWLQLADFRKVGDALKEKYDSAAAMRLNSRGKLVQVNSRFNSPTTQDLVYIDPSPDYCVRNESTGSLGTQGRLCNKTSEGMDGCELMCCGRGYDQFKTVQTERCHCKFHWCCYVKCKKCTEIVDQFVCK
B1 was tested, and the “expression of Cxcl5, Cxcl2 and Cxcl1” value was “increased expression of Cxcl5, Cxcl2, and Cxcl1”.
